{
  "source": "patent US20230056856",
  "about": "“COMPOSITIONS AND METHODS FOR TUNABLE REGULATION OF TRANSCRIPTION” (OBSIDIAN THERAPEUTICS, INC., published 2023)",
  "binders": {"B1": {"name": "8xZFHD1 binding sites of payload ZFHD-007 (dsDNA)", "DNA 1": "TAATGATGGGCGCACGAGTAATGATGGGCGGACGACTAATGATGGGCGCACGAGTAATGATGGGCGTCTAGCTAATGATGGGCGCTAGAGTAATGATGGGCGGTAGACTAATGATGGGCGCTCCAGTAATGATGGGCG", "DNA 2": "CGCCCATCATTACTGGAGCGCCCATCATTAGTCTACCGCCCATCATTACTCTAGCGCCCATCATTAGCTAGACGCCCATCATTACTCGTGCGCCCATCATTAGTCGTCCGCCCATCATTACTCGTGCGCCCATCATTA"}, "B2": {"name": "8xZFHD1 BS payload ZFHD-022 (dsDNA)", "DNA 1": "TAATGATGGGCGCACGAGTAATGATGGGCGGACGACTAATGATGGGCGCACGAGTAATGATGGGCGTCTAGCTAATGATGGGCGCTAGAGTAATGATGGGCGGTAGACTAATGATGGGCGCTCCAGTAATGATGGGCG", "DNA 2": "CGCCCATCATTACTGGAGCGCCCATCATTAGTCTACCGCCCATCATTACTCTAGCGCCCATCATTAGCTAGACGCCCATCATTACTCGTGCGCCCATCATTAGTCGTCCGCCCATCATTACTCGTGCGCCCATCATTA"}},
  "key": {"[1]": {"target": "ZFHD1-p65-CA2(L156H) (ZFHD-019) (Artificial)", "test": "cell_activity; ARPE-19, GFP MFI 10 uM ACZ vs DMSO, 48 h; in U2OS ACZ EC50 of payload 1.1 uM (Example 9)", "experimental": "Cells were cultured in DMEM-F12 media supplemented with 10% FBS.\nLigand treatment: Each cell line was plated at a density of 15,000 cells/well in 6-8 wells of a 24-well plate. Cells were allowed to adhere overnight. […] After 48 hours incubation, cells were removed from the plate with 0.25% trypsin and collected. […] For flow cytometry, samples were washed once with cell staining buffer (Biolegend, San Diego, Calif.), resuspended in cell staining buffer with 1% QSol™ buffer (Intellicyt Corporation, Albuquerque, N. Mex.), and analyzed by flow cytometry."}, "[2]": {"target": "ZFHD1-ecDHFR(R12Y,Y100I)-p65 (ZFHD-008) (Artificial)", "test": "cell_activity; U2OS, GFP MFI 10 uM TMP vs DMSO, 72 h", "experimental": "(§1) Ligand treatment: Each cell line was plated in 12-well plates at a density of 80,000 cells/well and allowed to adhere overnight. Media was removed and replacement media either with 10 μM Trimethoprim (TMP) or 0.1% DMSO was added. Cells were incubated for 24 hour, 48 hour, and 72 hour timepoints. At each timepoint, cells were removed from the plates with 0.25% trypsin for collection. A 0 hour timepoint was also collected before addition of TMP or DMSO."}, "[3]": {"target": "ZFHD1-p65-linker-ecDHFR(R12Y,Y100I) (ZFHD-009) (Artificial)", "test": "cell_activity; U2OS, GFP MFI 10 uM TMP vs DMSO, 72 h", "experimental": "as §1"}, "[4]": {"target": "ZFHD1-p65-ecDHFR(R12Y,Y100I) (ZFHD-005) (Artificial)", "test": "cell_activity; U2OS, GFP MFI 10 uM TMP vs DMSO, 72 h", "experimental": "as §1"}, "[5]": {"target": "ZFHD1-p65 (ZFHD-004, constitutive) (Artificial (Homo sapiens/Mus …))", "test": "cell_activity; U2OS, constitutive TF; TMP/DMSO ratio only, not regulated by ligand"}, "[6]": {"target": "ZFHD1-p65-CA2(L156H) (ZFHD-048) (Artificial)", "test": "cell_activity; Jurkat, GFP MFI 10 uM ACZ vs DMSO, 48 h"}},
  "data": [
    {"binder": "B1", "values": [
      {"measurement": "activity", "setting": "[1]", "value": "~1.9", "unit": "fold"},
      {"measurement": "activity", "setting": "[2]", "value": 3.57, "unit": "fold"},
      {"measurement": "activity", "setting": "[3]", "value": 5.71, "unit": "fold"},
      {"measurement": "activity", "setting": "[4]", "value": 11.4, "unit": "fold"},
      {"measurement": "activity", "setting": "[5]", "value": 0.894, "unit": "fold"}
    ]},
    {"binder": "B2", "values": [
      {"measurement": "activity", "setting": "[6]", "value": "~2.1", "unit": "fold"}
    ]}
  ]
}
